From patent US10358467B2, “Therapeutic targets for cancer progression” (The Regents of the University of California, priority 2015, dated 2019) come the findings set out here.

Common to all, as to type: cell-based
Assay [1] deals with cAMP levels in HeLa cells. The assay is described as follows: Measurement of cAMP by radioimmunoassay in HeLa cells. As to the method: HeLa cells were transfected with DAPLE-WT or DAPLE-FA, serum starved (0.2% FBS, 16 h) and incubated with isobutylmethylxanthine (IBMX, 200 μM, 20 min) followed by Wnt5a stimulation (100 ng/ml, 20 min) and Forskolin (10 uM, 10 min). To stop the reaction, cell medium was replaced with 150 μl of ice-cold TCA 7.5% (w/v). cAMP content in TCA extracts was determined by radioimmunoassay (MA) and normalized. To the amount of protein [(determined using a dyebinding protein assay (Bio-Rad)] per sample as previously described (Ostrom et al, 2001).

In assay [2] the test system is Gi heterotrimer (Gαi1-YFP, CFP-Gβ1, Gγ2). As to the kind of experiment: FRET between Gαi1-YFP and CFP-Gβ1 (Gi activation) in living HeLa cells. As to the method: (§1) Förster Resonance Energy Transfer (FRET) experiments were performed using the classical ECFP- and EYFP-tagged proteins as donor and acceptor FRET-probe pairs, respectively. Previously validated and published FZD7-CFP construct was a generous gift from Carl-Philip Heisenberg (Witzel et al, 2006). Previously validated Gαi3-YFP and Gαi1-YFP (internally tagged Gαi subunits) and CFP-Gβ1 were generous gifts from Moritz Bunemann (Bunemann et al, 2003; Gibson & Gilman, 2006). Interaction of FZD7-CFP and Gαi3-YFP proteins was studied in HEK293T cells using a Leica inverted laser scanning confocal microscope. […] Loss of FRET upon Gi activation and heterotrimer dissociation was measured between Gαi1-YFP and CFP-Gβ1 proteins co-expressed in living HeLa cells using Olympus FV1000 inverted confocal laser scanning microscope equipped with a 60× 1.49 N.A oil immersed objective designed to minimize chromatic aberration and enhance resolution for 405-605 nm imaging as described previously (Midde et al, 2015). […] FRET efficiency was calculated on a pixel by pixel basis from ratiometric images obtained in individual channels (donor, acceptor and FRET) through a RiFRET plugin in Image J software (Roszik et al, 2009). […]

Assay [3] has as its system FZD7R-Gαi3 complexes. The assay is described as follows: FRET between FZD7R-CFP and Gαi3-YFP in HEK293 cells. Particulars: plasma membrane, within 5 min; starved cells 0.04±0.01. How it is done:
as §1

B1: Wnt5a: recombinant Wnt5a purified from CHO conditioned media (protein, UniProt P41221 62-380, looked up)
Protein Wnt-5a: IIGAQPLCSQLAGLSQGQKKLCHLYQDHMQYIGEGAKTGIKECQYQFRHRRWNCSTVDNTSVFGRVMQIGSRETAFTYAVSAAGVVNAMSRACREGELSTCGCSRAARPKDLPRDWLWGGCGDNIDYGYRFAKEFVDARERERIHAKGSYESARILMNLHNNEAGRRTVYNLADVACKCHGVSGSCSLKTCWLQLADFRKVGDALKEKYDSAAAMRLNSRGKLVQVNSRFNSPTTQDLVYIDPSPDYCVRNESTGSLGTQGRLCNKTSEGMDGCELMCCGRGYDQFKTVQTERCHCKFHWCCYVKCKKCTEIVDQFVCK
For B1, the “suppression of cAMP levels” value in assay [1] (HeLa cells expressing DAPLE-FA) is given as “no such suppression”; in assay [1] (HeLa cells expressing DAPLE-WT, Wnt5a 100 ng/ml 20 min) it was approximately 50%. Moreover, in assay [2] (DAPLE-depleted HeLa cells), the “drop in FRET after Wnt5a stimulation” value was “No significant drop in FRET”. Further, the “FRET efficiency after Wnt5a stimulation” value in assay [2] (control HeLa cells, plasma membrane, within 5 min, 0.36±0.08 before stimulation) stood at 0.17±0.06. Also, the “FRET efficiency after ligand stimulation” value in assay [3] is listed as 0.25±0.06.
